Assay: soluble on expression in E. coli; label from the status in PepcDB or PDB records

| Sequence | soluble on expression in E. coli |
| --- | --- |
| GPGSMSALWAQVRQTVESEWDKTIVPAISAYIEVPNQSPQFDPEWATNGLQEKAFGILIDWMNAQNVQGLTYDYITADGRTPFLLVEIAGTEPTNNTVLMYGHMDKQPPLRPWAEGLDPHKAVVRDGKLYGRGGADDGYALFAAVTAISSLQRHGIPHGRVVITIEAGEESGSPDLDYYMERCKERIGKVDLMVCLDSGSMNYSQVWLTTSLRGVAIGELTVQTLTESMHSGVAGGVVPDTFRITRELLSRIEDCKTGEVTIPEAHCEIPPNAVKAAEAMKTVPFKEQFAMAAGVATVPGDNVELAIQNFWKPSLTVTGANLPDPQIAGNVIRTHTTVKLSMRLPPLVKAEAALQAMKRILEADPPYGAKVAFKGVGAGNGCAAPELKPWLQEVLHEGSTEAFGNTYACQGMGGAIPFIGMLIDMYPEAQFVVTGLLGPQSNAHGPNEFLHIPYAKGLTYSIARVVAAHLHNTPK | soluble |
| MNANVYQHFRKDEHPFIDTVGDWLEQVEMQYAPYLTDFLDPRQAYILETLIRQNSDLSFTFYGGYEQAERKRCLIYPAYYIPEETDFGVVLFEIIYPSKFATLSHGKILGTLMNVGVRREAFGDIISDGDKWQVFIAQEVAGFVVNQVDKIGKITVRLEERDYTQILIPKDGWQEERTTMSSLRLDSVISAVFNISRQRSKQLIESGKVKVNWTETTRPDFALDLLDIVSIRGFGRLQIQELEGKTKKEKFRVLLGVLRK | not soluble |
| MAEVESFSLDHTKVKAPYVRLAGRKALAGGVVEKYDLRLAQPNREALPTGALHTLEHLLAGYLRDHLPGVIDLSPMGCRTGFYLVVEGPVGEEKVLEAFAQALKDVLAHEGEVPGASFRECGNYRDHDLPGAKAWAEKVLKAGLRVQATVPLEAR | soluble |
| MSLKNIVFCGLSSRAFSMFIKPLMERFSTHYEITGLLDADPKRFAVCKKKFPELAHVPEFSEDAFDEMMRVSKPDIVIVAGRDDTHVAYIVKSLQWNTDVITEKPMVTTVQDANRVLEAEAKSEGKVTVAFNYRYSPFHRKIKEMILDGKIGRVTSVDLNWYIDTYHGASYFKRWNRSRQFSGGLSVHKSTHHFDLVNWWLGQNPEEVFAYGALNYYGPDSEWNPLPEEDGRFCGTCRVKEKCHYYSRWHPRSSKASIKDDHLEAGDQSSLYTAYRPDACIFDEEIDIEDTYVAAVKYDGGALLSYSIIFSAPYEGYRLTINGTKGRIESNEFHEPSRIPFAFPEQTIEYYPLFESKQTIQVVKNEGGHGGGDPLLLEDLFLGKDPLRRYDILAGAEAGAYSIAVGEGMWRSVAEKKPIGMKELFQMQNEGHHHHHH | soluble |
| MRVDRRTFLKATGAALGALALSGLPARAQGLEGEDLEHLEQALKEVFGKGFKDLTPSDAVKLNMPAIAESGANVPAEVEVALPKEQVKAIHLFADKNPTPHILAFMPMKAEPYYATRVRLAETTAIRAVVETQDGKLLLASASTRVTVGGCG | soluble |
| MKFDTIINQPVIETERFDLRPLRKSDMGLIEHYARDERVARMTTSIPHPLPPGMAEGFVARAMSEERTEDVWAMDATRDGGPELMGLISLERMDRNQSEVGYWVAPVFWNTGIASMAVEALVNANPLGNATMFASVFQDNPASARVLTHCGFQYLGDAESYSVARDAAVPTWTYSRKL | not soluble |
| MLAKRSIALTAATLLREPILRREDIADSLLARDILADARQQATQILALEQEKAEHLQQQALAQFWENANAFLGELQVQREALQEQAMTAVEELLSESLRHLLDDTTLAERARALARNLAASQLNEAVATLSVHPQIADAVAEWLADSRFSEHWQLKRDATIASDSLRLSDANGAFDIAWADLRKGLLGVEPAA | not soluble |
| GPGSVPPKKPTEVPKLVRINTNEKGITNVQLARAPVNSMSLELFQELNQWMLWLGCNEETKAVIISSAIPTVFSAGLEFSEVHNPKPDRIAVFWQSFQEMWRILDTFPKPIIAAITGNSPAAGCIIAMGCDYRVMARGPKGNTNNNRLYRIGLNETKLGLVPPPWTVSAYAYLLGSRQAEEMLQLGETPVADDARNLGLIDEVAADEERAIEVAYQQAERFLSVPQEARRVSRDMARCEYLRLLATEDDRNYDTEFFTQYMLRPEVQKNLESYLERLKSRSRK | not soluble |
| MGSDKIHHHHHHMSIQTSDPNETSDLKSLSLIAAHSHITGLGLDENLQPRPTSEGMVGQLQARRAAGVILKMVQNGTIAGRAVLVAGPPSTGKTALAMGVSQSLGKDVPFTAIAGSEIFSLELSKTEALTQAFRKSIGIKIKEETELIEGEVVEIQIDRSITGGHKQGKLTIKTTDMETIYELGNKMIDGLTKEKVLAGDVISIDKASGKITKLGRSFARSRDYDAMGADTRFVQCPEGELQKRKTVVHTVSLHEIDVINSRTQGFLALFTGDTGEIRSEVRDQINTKVAEWKEEGKAEIVPGVLFIDEVHMLDIECFSFINRALEDEFAPIVMMATNRGVSKTRGTNYKSPHGLPLDLLDRSIIITTKSYNEQEIKTILSIRAQEEEVELSSDALDLLTKTGVETSLRYSSNLISVAQQIAMKRKNNTVEVEDVKRAYLLFLDSARSVKYVQENESQYIDDQGNVQISIAKSADPDAMDTTE | not soluble |
| MDFKHLTQFKDIIELDKRPVKLDERETFNVSWGIDENYQVGAAISIASILENNKQNKFTFHIIADYLDKEYIELLSQLATKYQTVIKLYHIDSEPLKALPQSNIWPVSIYYRLLSFDYFSARLDSLLYLDADIVCKGSLNELIALEFKDEYGAVVIDVDAMQSKSAERLCNEDFNGSYFNSGVMYINLREWLKQRLTEKFFDLLSDESIIKKLKYPDQDILNLMFLHHAKILPRKYNCIYTIKSEFEEKNSEYYTRFINDDTVFIHYTGITKPWHDWANYASADYFRNIYNISPWRNIPYKKAVKKHEYKEKYKHLLYQKKFLDGVFTAIKYNVMKG | not soluble |
| MHHHHHHGKPIPNPLLGLDSTENLYFQGIDPFTEFMDSTDLFDVFEETPVELPTDSNGEKNADTNVGDTPDHTQDKKHGLEEEKEEHEENNSENKKIKSNKSKTEDKNKKVVVPVLADSFEQEASREVDASKGLTNSETLQVEQDGKVRLSHQVRHQVALPPNYDYTPIAEHKRVNEARTYPFTLDPFQDTAISCIDRGESVLVSAHTSAGKTVVAEYAIAQSLKNKQRVIYTSPIKALSNQKYRELLAEFGDVGLMTGDITINPDAGCLVMTTEILRSMLYRGSEVMREVAWVIFDEVHYMRDKERGVVWEETIILLPDKVRYVFLSATIPNAMEFAEWICKIHSQPCHIVYTNFRPTPLQHYLFPAHGDGIYLVVDEKSTFREENFQKAMASISNQIGDDPNSTDSRGKKGQTYKGGSAKGDAKGDIYKIVKMIWKKKYNPVIVFSFSKRDCEELALKMSKLDFNSDDEKEALTKIFNNAIALLPETDRELPQIKHILPLLRRGIGIHHSGLLPILKEVIEILFQEGFLKVLFATETFSIGLNMPAKTVVFTSVRKWDGQQFRWVSGGEYIQMSGRAGRRGLDDRGIVIMMIDEKMEPQVAKGMVKGQADRLDSAFHLGYNMILNLMRVEGISPEFMLEHSFFQFQNVISVPVMEKKLAELKKDFDGIEVEDEENVKEYHEIEQAIKGYREDVRQVVTHPANALSFLQPGRLVEISVNGKDNYGWGAVVDFAKRINKRNPSAVYTDHESYIVNVVVNTMYIDSPVNLLKPFNPTLPEGIRPAEEGEKSICAVIPITLDSIKSIGNLRLYMPKDIRASGQKETVGKSLREVNRRFPDGIPVLDPVKNMKIEDEDFLKLMKKIDVLNTKLSSNPLTNSMRLEELYGKYSRKHDLHEDMKQLKRKISESQAVIQLDDLRRRKRVLRRLGFCTPNDIIELKGRVACEISSGDELLLTELIFNGNFNELKPEQAAALLSCFAFQERCKEAPRLKPELAEPLKAMREIAAKIAKIMKDSKIEVVEKDYVESFRHELMEVVYEWCRGATFTQICKMTDVYEGSLIRMFKRLEELVKELVDVANTIGNSSLKEKMEAVLKLIHRDIVSAGSLYL | soluble |
| MTNNAVLQLRAERLARATRPFLARGNRVRRCQRCLLPLKSCLCDTLTPSQAKSRFCLVMFDTEPMKPSNTGRLIADILPDTAAFQWSRTEPPQALLELVQHPDYQPIVVFPASYAGEAREVISTPPAGKPPLFIMLDGTWPEARKMFRKCPYLDHLPVISVDLSRLSAYRLREIHAEGQYCTAEVAIALLDLAGDTEAATSLGEHFTRFKTRYLAGKTQHPGNVTALEHHHHHH | not soluble |
| MSLRFLADIEEYIGFEIPKIEAPSQEEVARKKPEFLAKLNDRPESKKDKSEELNKDIMKLYFNGGKKKKIRAVDFVGTIAKIDGVSADDIGIITIMDNASYVEILNGKGPHVLKVMKNTTVKGKQLKVNKANKEGHHHHHH | not soluble |
| MGEKLLMKGNEAIAEAALRAGCRHYFGYPITPQTEIAHYLAKKMPEVGGTFIQAESEVAAINMVYGAASAGARVLTSSSSPGISLKQEGLSYLAGAELPAVVVNIVRCGPGLGGILPAQGDYFQAVKGGGHGDYKMVVLAPSSVQELYELTVEAFNIADRYRIVSMIMGDGILGQMMEAVEFKDVENIEKIDKPWATTGTQMKREHNTITSIYIQPEVLEKHNQKLQAKYRLIEERETRVESYNCENADIIVTAFGTVARIVKNVIKMAEKEGIKVGLIRPITLWPFPTKEYEKYADVPKAFLTVELNAGQMVEDVRLAVNGKKPVYFHGRMGGMIPTQKEILDKIKEILNN | not soluble |
| MGSDKIHHHHHHVSSLSFNFAPDFRPLAARMRPRSIAEYIGQAHLLGEGQPLRKALEAGRAHSMMLWGPPGTGKTTLAELIAQYSNAHVERISAVTSGVKEIRAAIEQAKAIAESRGQRTLLFVDEVHRFNKSQQDAFLPFIEDGTVIFIGATTENPSFEINNALLSRARVYLIKRLSNNEIAHIVTQALADTERGLGLRQLEMPESVLIKLAQLCDGDARKALNLLELMSDMVSDNDTFTLEMLVQVAGHQVAGFDKNGDQFYDLISAVHKSIRGSAPDAALYWYCRILEGGGDPLYVARRLLAIASEDVGNADPAAMTIALNAWDCFHRVGPAEGERAIAQAIVYLASAPKSNAVYTAFKAARALARETGQESVPHHLRNAPTQLMKEIGMGEGYRYAHDEPNAYASGENYFPESLKTAQFYFPTERGFEKRIKDKLIQLTQLDQVSENKRYD | not soluble |
| MGSDKIHHHHHHMLYQGVSLILAPLLVFQGLNVRRTTPRLPEPEGERVGQTGANPALSLLILGDSAAAGVGVAFQQHALLGQVIEQLSPQLEFSYGLFAKTGSTTSTTLQALQEQIDIAHPILGQTHFDVIVTSLGVNDITSSISCEKWLLQQKALFELITKRYTPKLILVTALPPLGLFPALPHPLRWSLGQRANQFNRQLQQLLIKLNQQVDQPTDFRLIKLPLENPQPDITMLEFMRQVMASDGFHPGAPIYSAWANLVVEQIVGGIKSAAIA | not soluble |
| MSLNIAMTGATGYIGKHLSNYLTEKGGHRIIPLGRAMFREGMSGLLVQTLTHCDVIINLAGAPINQRWTPEHKQELFNSRITVTHRIIRALNAVKTKPKLMISASAVGYYPSLVESDEYTQTRGDGFLSDLCYAWEKEAKRCPQPTRLVITRFGVVLSPDGGAMQQMLRPLRATKVAAVIGPGTQPFPWIDIRDLCCAMAFFIENEELRGVFNLVAPQAVSQSTFTRAMGKAYHAWTTLIVPQAVFRLFYGEAASFLTAGQRVRPTRLLEAGFHFSVPTIEKLFEGEGHHHHHH | soluble |
| MSLPTTSSPLTNDQEFAKPVRNGKIFENPKSFTNWGGRPGLTNIFKLVLRETSHENLPSDKKVLDSTLPVHNITADDFHSESGLFATWLGHATVLVDLEGVKFVTDPVWADRASFTSFAGPKRYRPPPMKLEDLPDLDFAVVSHDHYDHLDADAVKRITNLNPQIKWFVPLGLKKWMKNQGIGADGSNTVTELNWGESSEFVKNGKTITIWCLPAQHSGQRGLSDHNHRLWSGWAVIGENRRFYFPGDTGFCDVEFKKIGEKLGPFDLAAIPIGAYEPRWFMKSHHINPDEAVEVHKLVRARNSIGIHWGTYPMGTTEYYLEPRDKLKELMDAREDLKDTSFVTVDMGEIWEASDR | not soluble |

Source: the DeepSol protein solubility set
